{
  "source": "paper PMC13585564",
  "about": "(2026)",
  "binders": {"B1": {"name": "SERK3 (protein)", "chain": "NAEGDALSALKNSLADPNKVLQSWDATLVTPCTWFHVTCNSDNSVTRVDLGNANLSGQLVMQLGQLPNLQYLELYSNNITGTIPEQLGNLTELVSLDLYLNNLSGPIPSTLGRLKKLRFLRLNNNSLSGEIPRSLTAVLTLQVLDLSNNPLTGDIPVNGSFSLFTPISFANTKLTPLPASPPPPISPTPPSPAGS"}, "B2": {"name": "SERK1 ectodomain (residues 24–213) (domain or fragment)", "chain": "ASANLEGDALHTLRVTLVDPNNVLQSWDPTLVNPCTWFHVTCNNENSVIRVDLGNAELSGHLVPELGVLKNLQYLELYSNNITGPIPSNLGNLTNLVSLDLYLNSFSGPIPESLGKLSKLRFLRLNNNSLTGSIPMSLTNITTLQVLDLSNNRLSGSVPDNGSFSLFTPISFANNLDLCGPVTSHPCPGS"}},
  "assay_in_all_cases": "ITC",
  "key": {"[1]": {"target": "HSL3 ectodomain pre-incubated with CTNIP4^N60A(46–70)_(Cys–Cys) (Arabidopsis, N60A (stands in the printed letters), disulfide bond linking Cys58 and Cys68)"}, "[2]": {"target": "HSL3 ectodomain pre-incubated with CTNIP4^N60F(46–70)_(Cys–Cys) (Arabidopsis, N60F (stands in the printed letters), disulfide bond linking Cys58 and Cys68)"}, "[3]": {"target": "HSL3–CTNIP4 complex (HSL3 ectodomain pre-incubated with CTNIP4(46–70)_(Cys–Cys)) (Arabidopsis, disulfide bond linking Cys58 and Cys68)"}, "[4]": {"target": "HSL3 ectodomain pre-incubated with CTNIP4^C58A(46–63) (Arabidopsis, C58A (stands in the printed letters))"}, "[5]": {"target": "HSL3 ectodomain pre-incubated with CTNIP4^C58A.C68A(46–70)_(linear) (Arabidopsis, C58A (stands in the printed letters) | C68A (stands in the printed letters))"}},
  "data": [
    {"binder": "B1", "values": [
      {"measurement": "Kd", "setting": "[1]", "result": 2050, "unit": "nM"},
      {"measurement": "Kd", "setting": "[2]", "result": 15100, "unit": "nM"},
      {"measurement": "Kd", "setting": "[3]", "result": 269, "unit": "nM"}
    ]},
    {"binder": "B2", "values": [
      {"measurement": "Kd", "setting": "[4]", "result": 8200, "unit": "nM"},
      {"measurement": "Kd", "setting": "[3]", "result": 458, "unit": "nM"},
      {"measurement": "Kd", "setting": "[5]", "result": 2540, "unit": "nM"}
    ]}
  ]
}
